Experimental data published in the supplement of paper PMC10567573.

B1: BTBD1 (parent)
chain: IVGFGLYGSIHGPTDYQVNIQIIE
B2: HSP90AB1 (parent)
chain: TLRQKAEADKNDKAVKDLVVLLFE

Variants of: B1
Experiment: protein stability index of a GFP-peptide fusion (GPS, HEK-293T) (PSI 1-6); higher = more stable
Details: c terminus: a fixed tail appended
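Also: lentivirally expressed fusions sorted by FACS into six bins by GFP to DsRed ratio, PSI derived from sequencing read proportions per bin multiplied by bin number.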

Going from EVGFGLYGSIHGPTDYQVNIQIIE [I1E] to CVGFGLYGSIHGPTDYQVNIQIIE [I1C], the protein stability index falls from 3.29 to 2.91.

Compared with VVGFGLYGSIHGPTDYQVNIQIIE [I1V], TVGFGLYGSIHGPTDYQVNIQIIE [I1T] is lower in protein stability index: 3.69 for the first, 1.82 for the second.

Compared with DVGFGLYGSIHGPTDYQVNIQIIE [I1D], PVGFGLYGSIHGPTDYQVNIQIIE [I1P] is lower in protein stability index: 2.03 for the first, 1.82 for the second.

Compared with RVGFGLYGSIHGPTDYQVNIQIIE [I1R], HVGFGLYGSIHGPTDYQVNIQIIE [I1H] is higher in protein stability index: 1.65 for the first, 2.38 for the second.

First: KVGFGLYGSIHGPTDYQVNIQIIE [I1K]
Second: QVGFGLYGSIHGPTDYQVNIQIIE [I1Q]
The protein stability index of the first is lower: 2.14 for the first, 3.04 for the second.

Going from GVGFGLYGSIHGPTDYQVNIQIIE [I1G] to SVGFGLYGSIHGPTDYQVNIQIIE [I1S], the protein stability index falls from 3.43 to 1.77.

Going from NVGFGLYGSIHGPTDYQVNIQIIE [I1N] to FVGFGLYGSIHGPTDYQVNIQIIE [I1F], the protein stability index rises from 2.16 to 3.14.

Compared with IAGFGLYGSIHGPTDYQVNIQIIE [V2A], ICGFGLYGSIHGPTDYQVNIQIIE [V2C] is higher in protein stability index: 2.81 for the first, 3.88 for the second.

Variants of: B2
Experiment: as above
Details: c terminus: a fixed tail appended

Going from TLRQKAMADKNDKAVKDLVVLLFE [E7M] to TLRQKANADKNDKAVKDLVVLLFE [E7N], the protein stability index rises from 2.48 to 2.72.

First: TLRQKAWADKNDKAVKDLVVLLFE [E7W]
Second: ELRQKAEADKNDKAVKDLVVLLFE [T1E]
The protein stability index of the first is lower: 1.81 for the first, 3.92 for the second.

First: VLRQKAEADKNDKAVKDLVVLLFE [T1V]
Second: NLRQKAEADKNDKAVKDLVVLLFE [T1N]
The protein stability index of the first is lower: 2.52 for the first, 2.57 for the second.

First: FLRQKAEADKNDKAVKDLVVLLFE [T1F]
Second: TLRQKEEADKNDKAVKDLVVLLFE [A6E]
The protein stability index of the first is lower: 2.42 for the first, 3.33 for the second.

First: TLRQKQEADKNDKAVKDLVVLLFE [A6Q]
Second: TLRQKMEADKNDKAVKDLVVLLFE [A6M]
The protein stability index of the first is lower: 2.68 for the first, 2.93 for the second.

Going from TLRQKAEADKNDKAVKDLVVLRFE [L22R] to TLRQKAEADKNDKAVKDLVVLYFE [L22Y], the protein stability index falls from 3.9 to 2.78.

First: TLRQKAEADKNDKAVKDLVVLFFE [L22F]
Second: TLRQKAEADKNDKAVKDLVVLVFE [L22V]
The protein stability index of the first is lower: 2.84 for the first, 3.73 for the second.

Compared with TLRQKAEADHNDKAVKDLVVLLFE [K10H], TLRQKAEADRNDKAVKDLVVLLFE [K10R] is higher in protein stability index: 2.69 for the first, 3.29 for the second.

Compared with TLRQKAEADLNDKAVKDLVVLLFE [K10L], TLRQKAEADTNDKAVKDLVVLLFE [K10T] is higher in protein stability index: 2.61 for the first, 2.92 for the second.

Compared with TLRQKAEADKNDKSVKDLVVLLFE [A14S], TLRQKAEADKNDKGVKDLVVLLFE [A14G] is higher in protein stability index: 2.26 for the first, 3.17 for the second.

Compared with TLRQKAEADKNDKMVKDLVVLLFE [A14M], TLRQKAEADKNDKEVKDLVVLLFE [A14E] is higher in protein stability index: 2.73 for the first, 3.64 for the second.

First: TLRQKAEADKNDKNVKDLVVLLFE [A14N]
Second: TLRQKAEADKNTKAVKDLVVLLFE [D12T]
The protein stability index of the first is higher: 2.56 for the first, 2.22 for the second.

First: TLRQKAEADKNAKAVKDLVVLLFE [D12A]
Second: TLRQKAEADKNLKAVKDLVVLLFE [D12L]
The protein stability index of the first is lower: 2.44 for the first, 2.73 for the second.

Going from TLRQKAEADKNDKAVKDLVVLLAE [F23A] to TLRQKAEADKNDKAVKDLVVLLKE [F23K], the protein stability index rises from 3.7 to 4.69.

Going from TLRQKAEADKNDKAVKDLVVLLDE [F23D] to TLAQKAEADKNDKAVKDLVVLLFE [R3A], the protein stability index falls from 5.38 to 3.46.

Compared with TLEQKAEADKNDKAVKDLVVLLFE [R3E], TLHQKAEADKNDKAVKDLVVLLFE [R3H] is lower in protein stability index: 3.17 for the first, 2.84 for the second.

Going from TLWQKAEADKNDKAVKDLVVLLFE [R3W] to TLFQKAEADKNDKAVKDLVVLLFE [R3F], the protein stability index rises from 2.6 to 2.8.

Compared with TLRQKAEFDKNDKAVKDLVVLLFE [A8F], TLRQKAEADKNDKAIKDLVVLLFE [V15I] is lower in protein stability index: 2.89 for the first, 2.48 for the second.

First: TLRQKAEADKNDKANKDLVVLLFE [V15N]
Second: TLRQKAEADKNDKAEKDLVVLLFE [V15E]
The protein stability index of the first is lower: 3.12 for the first, 3.37 for the second.

Compared with TLRQKAEADKNDKAMKDLVVLLFE [V15M], TLRQKAEADKNDKAVKQLVVLLFE [D17Q] is lower in protein stability index: 3.47 for the first, 2.04 for the second.

Compared with TLRQKAEADKNDKAVKRLVVLLFE [D17R], TLRQKAEADKNDKAVKFLVVLLFE [D17F] is lower in protein stability index: 1.98 for the first, 1.51 for the second.

Compared with TLRQKAEADKNDKAVKDEVVLLFE [L18E], TLRQKAEADKNDKAVKDFVVLLFE [L18F] is lower in protein stability index: 4.04 for the first, 2.24 for the second.

Going from TLRQKAEADKNDKAVKDKVVLLFE [L18K] to TLRQKAEADKNDKAVKDYVVLLFE [L18Y], the protein stability index falls from 3.44 to 2.87.

Compared with TLRQKAEADKNDKAVKDGVVLLFE [L18G], TLRQKAEADKNDKAVKDLVVLLFQ [E24Q] is lower in protein stability index: 3.69 for the first, 2.64 for the second.

First: TVRQKAEADKNDKAVKDLVVLLFE [L2V]
Second: TWRQKAEADKNDKAVKDLVVLLFE [L2W]
The protein stability index of the first is higher: 3.15 for the first, 2.43 for the second.

Compared with TQRQKAEADKNDKAVKDLVVLLFE [L2Q], TRRQKAEADKNDKAVKDLVVLLFE [L2R] is lower in protein stability index: 3.62 for the first, 2.56 for the second.

Compared with TIRQKAEADKNDKAVKDLVVLLFE [L2I], TKRQKAEADKNDKAVKDLVVLLFE [L2K] is lower in protein stability index: 3.16 for the first, 2.26 for the second.

Compared with TLRQKAEADKNDKAVKDLGVLLFE [V19G], TLRMKAEADKNDKAVKDLVVLLFE [Q4M] is lower in protein stability index: 4.16 for the first, 2.48 for the second.

Going from TLRQKAEADKNDKAVFDLVVLLFE [K16F] to TLRQKAEADKNDKAVHDLVVLLFE [K16H], the protein stability index rises from 3.28 to 3.29.

Compared with TLRQKAEADKNDKAVEDLVVLLFE [K16E], TLRQKAEADKNDKAVYDLVVLLFE [K16Y] is lower in protein stability index: 3.06 for the first, 2.24 for the second.

First: TLRQKAEADKNDKAVCDLVVLLFE [K16C]
Second: TLRQKAEADKPDKAVKDLVVLLFE [N11P]
The protein stability index of the first is lower: 2.19 for the first, 2.58 for the second.

First: TLRQKAEADKEDKAVKDLVVLLFE [N11E]
Second: TLRQKAEADKKDKAVKDLVVLLFE [N11K]
The protein stability index of the first is higher: 3.21 for the first, 2.43 for the second.

Going from TLRQKAEADKIDKAVKDLVVLLFE [N11I] to TLRQKAEADKLDKAVKDLVVLLFE [N11L], the protein stability index falls from 2.98 to 2.83.

Compared with TLRQKAEADKNDTAVKDLVVLLFE [K13T], TLRQKAEADKNDKAVKDLVVPLFE [L21P] is higher in protein stability index: 2.96 for the first, 4.61 for the second.

First: TLRQKAEADKNDKAVKDLVVALFE [L21A]
Second: TLRQKAEADKNDKAVKDLVVGLFE [L21G]
The protein stability index of the first is lower: 2.67 for the first, 3.63 for the second.

First: TLRQEAEADKNDKAVKDLVVLLFE [K5E]
Second: TLRQFAEADKNDKAVKDLVVLLFE [K5F]
The protein stability index of the first is higher: 3.38 for the first, 2.75 for the second.

First: TLRQCAEADKNDKAVKDLVVLLFE [K5C]
Second: TLRQDAEADKNDKAVKDLVVLLFE [K5D]
The protein stability index of the first is lower: 2.85 for the first, 3.88 for the second.

Compared with TLRQKAEANKNDKAVKDLVVLLFE [D9N], TLRQKAEACKNDKAVKDLVVLLFE [D9C] is higher in protein stability index: 2.51 for the first, 2.73 for the second.

Compared with TLRQKAEAKKNDKAVKDLVVLLFE [D9K], TLRQKAEADKNDKAVKDLVQLLFE [V20Q] is higher in protein stability index: 2.51 for the first, 4.1 for the second.
